Source: article PMC5825156

Biological target: SIMx4 probe (fragment of Ring Finger Protein 4 comprising four SIMs) (Rattus norvegicus) (UniProt O88846)
Test: pull-down; lysate of E. coli expressing HA-TbSUMO chains or monomer incubated with His-tagged SIMx4 or mutSIMx4 probe, 50 mM Tris HCl pH 7.6, 150 mM NaCl, 1% NP40, 0.5% deoxycholate, 1.5 h at 4°C; captured on Ni^+2-resin, washed with 250 mM NaCl, eluted with imidazole; Western blot anti-HA, three replicates

Chain of UniProt O88846 (O88846 32-132): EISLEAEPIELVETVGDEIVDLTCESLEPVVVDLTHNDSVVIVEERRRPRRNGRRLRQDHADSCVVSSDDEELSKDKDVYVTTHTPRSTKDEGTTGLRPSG

Q: With “HA-TbSUMO chains (poly-SUMO chains of Trypanosoma brucei SUMO made by in bacteria SUMOylation)” as the substance, how does the fold pulled down against the mutSIMx4 probe or beads alone read?
A: > 3 fold
